For this experiment, the target named is RFP-Hrs (UniProt O14964).
UniProt O14964, sequence (O14964 whole entry): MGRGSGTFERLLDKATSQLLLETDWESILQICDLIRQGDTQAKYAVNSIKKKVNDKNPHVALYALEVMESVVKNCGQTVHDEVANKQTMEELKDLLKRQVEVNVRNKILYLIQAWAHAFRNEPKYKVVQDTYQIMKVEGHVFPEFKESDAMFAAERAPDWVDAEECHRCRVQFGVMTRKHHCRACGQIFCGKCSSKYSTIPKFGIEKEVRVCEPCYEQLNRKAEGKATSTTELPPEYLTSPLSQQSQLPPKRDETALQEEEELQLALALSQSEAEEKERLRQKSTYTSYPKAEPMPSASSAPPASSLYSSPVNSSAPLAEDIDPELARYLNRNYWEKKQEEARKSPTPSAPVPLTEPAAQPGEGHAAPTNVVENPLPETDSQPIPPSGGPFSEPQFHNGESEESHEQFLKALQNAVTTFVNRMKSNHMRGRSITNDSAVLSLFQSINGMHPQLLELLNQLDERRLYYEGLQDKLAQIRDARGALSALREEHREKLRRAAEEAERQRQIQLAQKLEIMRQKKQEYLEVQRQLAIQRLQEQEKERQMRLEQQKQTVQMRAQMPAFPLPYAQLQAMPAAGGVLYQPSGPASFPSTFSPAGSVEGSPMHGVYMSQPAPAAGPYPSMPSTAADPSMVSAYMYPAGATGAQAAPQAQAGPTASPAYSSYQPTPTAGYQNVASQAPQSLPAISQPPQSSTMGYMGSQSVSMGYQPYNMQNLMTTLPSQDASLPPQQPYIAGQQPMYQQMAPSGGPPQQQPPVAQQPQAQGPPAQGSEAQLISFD

B1: KIF13B-FRB-Myc (pBa-FRB-3myc-KIF13B tail 442–1826) (domain or fragment)
chain: KVGDDKCFLVNLNADPALNELLVYYLKEHTLIGSANSQDIQLCGMGILPEHCIIDITSEGQVMLTPQKNTRTFVNGSSVSSPIQLHHGDRILWGNNHFFRLNLPKKKKKAEREDEDQDPSMKNENSSEQLDVDGDSSSEVSSEVNFNYEYAQMEVTMKALGSNDPMQSILNSLEQQHEEEKRSALERQRLMYEHELEQLRRRLSPEKQNCRSMDRFSFHSPSAQQRLRQWAEEREATLNNSLMRLREQIVKANLLVREANYIAEELDKRTEYKVTLQIPASSLDANRKRGSLLSEPAIQVRRKGKGKQIWSLEKLDNRLLDMRDLYQEWKECEEDNPVIRSYFKRADPFYDEQENHSLIGVANVFLESLFYDVKLQYAVPIINQKGEVAGRLHVEVMRLSGDVGERIAGGDEVAEVSFEKETQENKLVCMVKILQATGLPQHLSHFVFCKYSFWDQQEPVIVAPEVDTSSSSVSKEPHCMVVFDHCNEFSVNITEDFIEHLSEGALAIEVYGHKINDPRKNPALWDLGIIQAKTRSLRDRWSEVTRKLEFWVQILEQNENGEYCPVEVISAKDVPTGGIFQLRQGQSRRVQVEVKSVQESGTLPLMEECILSVGIGCVKVRPLRAPRTHETFHEEEEDMDSYQDRDLERLRRKWLNALTKRQEYLDQQLQKLVSKRDKTEDDADREAQLLEMRLTLTEERNAVMVPSAGSGIPGAPAEWTPVPGMETHIPVIFLDLNADDFSSQDNLDDPEAGGWDATLTGEEEEEFFELQIVKQHDGEVKAEASWDSAVHGCPQLSRGTPVDERLFLIVRVTVQLSHPADMQLVLRKRICVNVHGRQGFAQSLLKKMSHRSSIPGCGVTFEIVSNIPEDAQGVEEREALARMAANVENPASADSEAYIEKYLRSVLAVENLLTLDRLRQEVAVKEQLTGKGKLSRRSISSPNVNRLSGSRQDLIPSYSLGSNKGRWESQQDVSQTTVSRGIAPAPALSVSPQNNHSPDPGLSNLAASYLNPVKSFVPQMPKLLKSLFPVRDEKRGKRPSPLAHQPVPRIMVQSASPDIRVTRMEEAQPEMGPDVLVQTMGAPALKICDKPAKVPSPPPVIAVTAVTPAPEAQDGPPSPLSEASSGYFSHSVSTATLSDALGPGLDAAAPPGSMPTAPEAEPEAPISHPPPPTAVPAEEPPGPQQLVSPGRERPDLEAPAPGSPFRVRRVRASELRSFSRMLAGDPGCSPGAEGNAPAPGAGGQALASDSEEADEVPEWLREGEFVTVGAHKTGVVRYVGPADFQEGTWVGVELDLPSGKNDGSIGGKQYFRCNPGYGLLVRPSRVRRATGPVRRRSTGLRLGAPEARRSATLSGSATNLASLTAALAKADRSHKNPENRKSWAS
Regarding B1, the percentage of transfected N2a cells exhibiting rapalog-induced Hrs recruitment to the centrosome/centriole (transport assay with BicD2-GFP-FKBP, kinesin tail-FRB-Myc and linker AP21967) came to 13%.

For the origin of these results see publication PMC9152131.
